The source of these data is patent US6127332.

The target in test [1] is T1, interferon receptors on Daudi cells and A549 cells (Homo sapiens (Human)) (UniProt P17181).
T1 sequence 1: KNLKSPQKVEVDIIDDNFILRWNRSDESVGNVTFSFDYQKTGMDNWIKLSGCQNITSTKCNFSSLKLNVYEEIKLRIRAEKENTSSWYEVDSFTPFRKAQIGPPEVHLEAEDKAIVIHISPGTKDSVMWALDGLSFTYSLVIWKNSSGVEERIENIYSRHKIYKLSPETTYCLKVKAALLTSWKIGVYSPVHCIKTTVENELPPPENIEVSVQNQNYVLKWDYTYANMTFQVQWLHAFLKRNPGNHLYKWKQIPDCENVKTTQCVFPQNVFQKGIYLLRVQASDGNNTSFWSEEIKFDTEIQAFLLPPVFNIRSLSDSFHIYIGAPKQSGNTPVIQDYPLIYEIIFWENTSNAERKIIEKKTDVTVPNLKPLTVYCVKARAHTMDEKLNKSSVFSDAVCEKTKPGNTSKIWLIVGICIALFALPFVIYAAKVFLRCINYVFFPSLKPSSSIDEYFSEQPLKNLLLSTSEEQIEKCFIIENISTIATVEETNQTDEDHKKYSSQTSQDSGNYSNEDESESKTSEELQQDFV
T1 sequence 2: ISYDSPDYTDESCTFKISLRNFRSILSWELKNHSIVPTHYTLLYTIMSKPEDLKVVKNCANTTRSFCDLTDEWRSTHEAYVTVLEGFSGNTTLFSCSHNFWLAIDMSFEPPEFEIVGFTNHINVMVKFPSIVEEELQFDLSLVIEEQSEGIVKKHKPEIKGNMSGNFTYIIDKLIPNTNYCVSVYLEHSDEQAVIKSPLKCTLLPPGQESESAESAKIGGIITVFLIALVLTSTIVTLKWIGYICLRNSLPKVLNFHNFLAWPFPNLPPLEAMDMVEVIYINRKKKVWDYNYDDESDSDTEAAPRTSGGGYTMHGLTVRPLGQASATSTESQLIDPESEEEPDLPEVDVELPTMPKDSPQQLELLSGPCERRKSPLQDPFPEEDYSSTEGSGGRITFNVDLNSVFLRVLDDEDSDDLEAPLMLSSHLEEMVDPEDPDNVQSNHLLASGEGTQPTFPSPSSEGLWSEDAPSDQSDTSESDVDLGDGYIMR

Test [2] deals with T1, interferon receptors on Daudi cells and A549 cells (Homo sapiens (Human)). This is another data set of the same source.

For wild type recombinant IFN-β (ligand), the specific activity in the Cytopathic Effect (CPE) assay for antiviral activity (EMC virus) in test [1] came to 2e+08 units/mg.

B1: IFN-β(phe101) (ligand)
chain: MSYNLLGFLQRSSNFQCQKLLWQLNGRLEYCLKDRMNFDIPEEIKQLQQFQKEDAALTIYEMLQNIFAIFRQDSSSTGWNETIVENLLANVYHQINHLKTFLEEKLEKEDFTRGKLMSSLHLKRYYGRILHYLKAKEYSHCAWTIVRVEILRNFYFINRLTGYLRN
modifications: 125I label (chloramine T method) where used as the labelled ligand in the receptor binding assay; unlabelled as competitor and in the antiviral assays
B1: the specific activity in the antiviral assay relative to recombinant wild type IFN-β in test [2] worked out at 2.5 fold. For the same molecule, in test [1], the specific activity in the Cytopathic Effect (CPE) assay for antiviral activity (EMC virus) was 4.8e+08 U/mg.
